From patent EP3583122A1 (dated 2019)

Legend:
Assay in all cases: cell-based or functional assay
[1] = target: T1, SUDV GP on rVSV particles (Sudan virus (SUDV), UniProt Q66814 33-676)
T1 sequence: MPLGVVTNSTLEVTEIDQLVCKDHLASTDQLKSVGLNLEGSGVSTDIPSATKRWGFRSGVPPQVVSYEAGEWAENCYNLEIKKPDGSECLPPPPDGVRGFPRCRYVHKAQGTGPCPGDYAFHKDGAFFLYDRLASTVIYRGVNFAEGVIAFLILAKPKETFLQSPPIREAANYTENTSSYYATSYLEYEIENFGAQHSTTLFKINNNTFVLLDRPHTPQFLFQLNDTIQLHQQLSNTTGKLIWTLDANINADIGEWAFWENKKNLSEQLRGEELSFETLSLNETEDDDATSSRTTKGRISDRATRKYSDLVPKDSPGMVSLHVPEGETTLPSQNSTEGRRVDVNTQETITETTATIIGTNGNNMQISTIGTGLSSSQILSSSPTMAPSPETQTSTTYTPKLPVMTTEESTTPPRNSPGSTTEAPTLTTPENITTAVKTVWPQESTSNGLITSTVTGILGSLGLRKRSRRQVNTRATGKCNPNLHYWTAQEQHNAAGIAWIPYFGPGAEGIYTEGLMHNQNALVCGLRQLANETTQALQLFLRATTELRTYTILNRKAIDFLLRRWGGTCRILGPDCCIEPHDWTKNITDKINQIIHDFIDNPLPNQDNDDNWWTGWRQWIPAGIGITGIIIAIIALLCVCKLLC

[2] = target: T2, EBOV GP on rVSV particles (Ebola virus (EBOV), UniProt Q05320 33-676)
T2 sequence: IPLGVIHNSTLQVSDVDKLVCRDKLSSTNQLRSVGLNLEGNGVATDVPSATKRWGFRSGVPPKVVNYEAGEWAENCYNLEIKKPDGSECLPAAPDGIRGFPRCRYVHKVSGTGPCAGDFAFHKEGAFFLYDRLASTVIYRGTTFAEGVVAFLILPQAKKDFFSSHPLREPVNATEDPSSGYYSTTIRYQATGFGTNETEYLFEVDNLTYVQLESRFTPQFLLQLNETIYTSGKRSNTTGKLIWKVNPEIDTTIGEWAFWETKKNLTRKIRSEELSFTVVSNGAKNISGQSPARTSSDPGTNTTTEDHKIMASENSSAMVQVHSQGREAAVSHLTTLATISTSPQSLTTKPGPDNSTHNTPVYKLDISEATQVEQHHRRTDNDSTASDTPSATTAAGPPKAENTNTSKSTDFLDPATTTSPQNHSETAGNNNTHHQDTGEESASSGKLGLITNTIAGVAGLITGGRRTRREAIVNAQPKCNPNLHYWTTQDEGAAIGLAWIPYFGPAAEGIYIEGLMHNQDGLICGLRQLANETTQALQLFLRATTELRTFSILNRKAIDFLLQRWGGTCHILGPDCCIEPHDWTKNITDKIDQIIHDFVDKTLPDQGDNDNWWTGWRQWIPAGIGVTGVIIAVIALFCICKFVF

[3] = target: T3, TAFV GP on VSV pseudotype particles (Tai Forest virus (TAFV), UniProt Q66810 33-676)
T3 sequence: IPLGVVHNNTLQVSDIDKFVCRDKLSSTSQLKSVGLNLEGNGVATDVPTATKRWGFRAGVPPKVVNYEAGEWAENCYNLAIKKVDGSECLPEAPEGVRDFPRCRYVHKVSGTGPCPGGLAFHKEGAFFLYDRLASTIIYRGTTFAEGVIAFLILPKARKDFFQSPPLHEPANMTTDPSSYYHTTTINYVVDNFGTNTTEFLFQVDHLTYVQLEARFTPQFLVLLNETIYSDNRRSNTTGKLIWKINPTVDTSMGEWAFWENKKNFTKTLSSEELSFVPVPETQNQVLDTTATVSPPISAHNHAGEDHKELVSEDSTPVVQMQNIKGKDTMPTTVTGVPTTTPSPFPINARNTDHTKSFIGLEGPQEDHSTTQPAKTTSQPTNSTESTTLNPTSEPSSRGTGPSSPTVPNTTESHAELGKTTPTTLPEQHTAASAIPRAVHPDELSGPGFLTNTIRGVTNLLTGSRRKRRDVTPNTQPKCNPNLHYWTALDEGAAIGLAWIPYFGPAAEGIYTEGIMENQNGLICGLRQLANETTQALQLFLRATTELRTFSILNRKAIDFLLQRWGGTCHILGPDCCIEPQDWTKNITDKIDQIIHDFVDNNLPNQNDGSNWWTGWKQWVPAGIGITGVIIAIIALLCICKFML

[4] = target: T4, RESTV GP on rVSV particles (Reston virus (RESTV), UniProt Q66799 34-677)
T4 sequence: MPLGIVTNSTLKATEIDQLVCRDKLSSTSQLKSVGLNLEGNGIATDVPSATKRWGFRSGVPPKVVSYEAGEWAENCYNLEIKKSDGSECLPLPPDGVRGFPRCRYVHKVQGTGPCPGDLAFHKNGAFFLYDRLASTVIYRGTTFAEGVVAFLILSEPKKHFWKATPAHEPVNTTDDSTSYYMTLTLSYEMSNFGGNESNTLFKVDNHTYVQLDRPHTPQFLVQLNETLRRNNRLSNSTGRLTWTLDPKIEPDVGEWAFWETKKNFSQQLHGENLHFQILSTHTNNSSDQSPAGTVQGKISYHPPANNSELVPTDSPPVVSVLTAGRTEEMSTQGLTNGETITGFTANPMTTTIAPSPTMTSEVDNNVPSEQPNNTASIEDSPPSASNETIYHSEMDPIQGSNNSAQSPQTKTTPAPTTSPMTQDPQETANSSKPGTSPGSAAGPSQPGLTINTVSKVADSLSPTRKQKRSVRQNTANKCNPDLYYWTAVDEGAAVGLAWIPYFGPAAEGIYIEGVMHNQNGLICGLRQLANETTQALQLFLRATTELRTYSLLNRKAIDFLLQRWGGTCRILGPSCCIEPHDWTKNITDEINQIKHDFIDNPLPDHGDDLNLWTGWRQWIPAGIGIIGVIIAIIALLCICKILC

[5] = target: BDBV GP on rVSV particles (Bundibugyo virus (BDBV))

B1: mAb PE-87 (antibody, V domains shown)
VH: QVQLVQSGVTLVQPGGSLRVSCAASGFTFSSYAMSWVRQAPGKGLEWVSAISGLGGSTYYADSVKGRFTISRDNSKNTLYLQMNSLRAEDTAVYYCAKDHRVWAAGYHFDYWGQGALVTVSS
VL: DIVLTQSPSTLSASVGDRVTITCRASQSISSWLAWYQQKPGEAPKLLISDASSLESGVPSRFSGSGSGTEFTLTISSLQPDDFATYYCQQYYSSPTFGGGTKVEIK
IC50, half-maximal neutralization of viral infectivity (rVSV-GP) [1]: 0.8 nM | IC50, half-maximal neutralization of viral infectivity (rVSV-GP) [2]: 1 nM | IC50, half-maximal neutralization of viral infectivity (rVSV-GP) [3]: 0.9 nM | IC50, half-maximal neutralization of viral infectivity (rVSV-GP) [4]: 0.1 nM | IC50, half-maximal neutralization of viral infectivity (rVSV-GP) [5]: 0.4 nM
